Reference: patent US20230322927A1 (Regeneron, published 2023)

Key:
[1] = target: human CD28 on cells (human, UniProt P10747 19-220); assay: cell-based or functional assay
[2] = target: T1, human EGFR on cells (human, UniProt P00533 25-1210); assay: flow cytometry titration on 22RV1 cells (EGFR-expressing)
T1 construct: whole, on cells; One molecule is used for both endogenous EGFR on human tumour cell lines and EGFR overexpressed on Ba/F3 cells; also called hEGFR; EGFR+ cells (PEO1, A375, 22RV1, CAPAN2, SW1990, H292, CASKI)
Description: (§1) Flow cytometric analysis was utilized to determine binding of anti-EGFR X anti-CD28 bispecific antibodies to several cancer cell lines (A375, 22RV1, PEO1, CAPAN2, SWi1990, H292), Human and Cynomolgus T cells and Jurkat cells followed by detection with a labeled anti-human secondary IgG antibody. […] After incubation, the cells were washed twice with cold PBS containing 1% filtered FBS and a Fluorophore-conjugated anti-human secondary antibody was added to the cells and incubated for an additional 30 minutes. Live/dead dye was added to Human and Cynomolgus T cells incubations. Wells containing no antibody or secondary only were used as a control.

[3] = target: T2, hEGFR(ECD).CPGG.MMH6 (REGN355) (human, UniProt P00533 25-647); assay: SPR (Biacore 4000) at 25 C; antibody captured on anti-human Fc, hEGFR.mmH injected
T2 construct: Soluble extracellular domain with a myc-myc-hexahistidine tag; also called hEGFR.mmH; hEGFR.mmh
Description: Association was monitored for 5 minutes, and the dissociation of hEGFR.mmH in HBS-EP running buffer was monitored for 10 minutes. All of the binding kinetics experiments were performed at 25° C. Kinetic association (kₐ) and dissociation (kd) rate constants were determined by fitting the real-time sensorgrams to a 1:1 binding model using Scrubber 2.0c curve fitting software.

[4] = target: T1, human EGFR on cells; assay: flow cytometry titration on A375 cells
Description: (§2) After incubation, the cells were washed twice with cold PBS containing 1% filtered FBS and a Fluorophore-conjugated anti-human secondary antibody was added to the cells and incubated for an additional 30 minutes. Live/dead dye was added to Human and Cynomolgus T cells incubations. Wells containing no antibody or secondary only were used as a control.
(§3) After incubation with EGFR expressing cells, cells were washed, re-suspended in 200 μL cold PBS containing 1% filtered FBS and analyzed by flow cytometry on a BD FACS Canto II.

[5] = target: T1, human EGFR on cells; assay: flow cytometry titration on CASKI cells; CASKI cells
[6] = target: T1, human EGFR on cells; assay: flow cytometry titration on H292 cells (EGFR-expressing)
Description: as §1

[7] = target: T3, hCD28.mFc (REGN2012) (human, UniProt P10747 19-152, limits assumed); assay: SPR (Biacore T-200) at 25 C; hCD28.mFc captured on anti-mouse Fc, antibody injected
T3 construct: also called Human CD28-mFc; hCD28 with a C-terminal mouse Fc tag; not shown: C-terminal mouse Fc tag

[8] = target: T1, human EGFR on cells; assay: flow cytometry titration on 22RV1 cells
Description: as §2, §3

[9] = target: T1, human EGFR on cells; assay: flow cytometry titration on PEO1 cells (EGFR-expressing)
Description: as §1

[10] = target: T1, human EGFR on cells; assay: flow cytometry titration on SW1990 cells (EGFR-expressing)
Description: as §1

[11] = target: T1, human EGFR on cells; assay: flow cytometry titration on PEO1 cells
Description: as §2, §3

[12] = target: T1, human EGFR on cells; assay: cell-based or functional assay
[13] = target: T1, human EGFR on cells; assay: flow cytometry titration on CAPAN2 cells (EGFR-expressing)
Description: as §1

[14] = target: T1, human EGFR on cells; assay: flow cytometry titration on A375 cells (EGFR-expressing)
Description: as §1

B1: REGN6323 (bispecific antibody, human IgG4 S228P, kappa)
heavy 1: QVQLQESGPGLVKPSETLSLTCTVSDDSIISYYWSWIRQPPGKGLEWIGYIYYSGRTNYNPSLKSRVTISVDTSKNQVSLKLNSVIAADTAVYYCARVSEDSYYHYGMDVWGQGTTVTVSSASTKGPSVFPLAPCSRSTSESTAALGCLVKDYFPEPVTVSWNSGALTSGVHTFPAVLQSSGLYSLSSVVTVPSSSLGTKTYTCNVDHKPSNTKVDKRVESKYGPPCPPCPAPPVAGPSVFLFPPKPKDTLMISRTPEVTCVVVDVSQEDPEVQFNWYVDGVEVHNAKTKPREEQFNSTYRVVSVLTVLHQDWLNGKEYKCKVSNKGLPSSIEKTISKAKGQPREPQVYTLPPSQEEMTKNQVSLTCLVKGFYPSDIAVEWESNGQPENNYKTTPPVLDSDGSFFLYSRLTVDKSRWQEGNVFSCSVMHEALHNHYTQKSLSLSLGK
heavy 2: QVQLQESGPGLVKPSETLSLTCTVSGGSISSYYWSWIRQPPGKGLEWIGYIYYSGITHYNPSLKSRVTISVDTSKIQFSLKLSSVTAADTAVYYCARWGVRRDYYYYGMDVWGQGTTVTVSSASTKGPSVFPLAPCSRSTSESTAALGCLVKDYFPEPVTVSWNSGALTSGVHTFPAVLQSSGLYSLSSVVTVPSSSLGTKTYTCNVDHKPSNTKVDKRVESKYGPPCPPCPAPPVAGPSVFLFPPKPKDTLMISRTPEVTCVVVDVSQEDPEVQFNWYVDGVEVHNAKTKPREEQFNSTYRVVSVLTVLHQDWLNGKEYKCKVSNKGLPSSIEKTISKAKGQPREPQVYTLPPSQEEMTKNQVSLTCLVKGFYPSDIAVEWESNGQPENNYKTTPPVLDSDGSFFLYSRLTVDKSRWQEGNVFSCSVMHEALHNRFTQKSLSLSPGK
light: not shown
notes: EGFR arm from mAb13006P2, CD28 arm from mAb14226; also called bsAb6323; EGFRxCD28
**Q.** What does the source list for B1?
**A.** IL-2 Release MAX (pg/mL), human CD3+ T cells + NCI-H292 cells, with 20 nM IsoC-1 [1]: 13.2 pg/mL; IL-2 Release MAX (pg/mL), human CD3+ T cells + NCI-H292 cells, with 20 nM cemiplimab [1]: 36.7 pg/mL; Proliferation EC50 [M], human CD3+ T cells + NCI-H292 cells, with 20 nM IsoC-1 [1]: 2.29e-11 M; Proliferation EC50 [M], human CD3+ T cells + NCI-H292 cells, with 20 nM cemiplimab [1]: 3.13e-11 M; Proliferation MAX (CPM), human CD3+ T cells + NCI-H292 cells, with 20 nM IsoC-1 [1]: 1660 CPM; Proliferation MAX (CPM), human CD3+ T cells + NCI-H292 cells, with 20 nM cemiplimab [1]: 2340 CPM; EC50 [2]: 0.554 nM; Kd [3]: 3.75 nM; koff [3]: 0.000774 s⁻¹; kon [3]: 206000 M⁻¹ s⁻¹; t½ [3]: 14.9 min; EC50 [4]: 0.874 nM; EC50 [5]: 2.35 nM; EC50 [6]: 0.674 nM; Kd [7]: 10 nM; koff [7]: 0.00265 s⁻¹; kon [7]: 265000 M⁻¹ s⁻¹; t½ [7]: 4.4 min; EC50 [8]: 11.9 nM; EC50 [9]: 0.667 nM; EC50 [10]: 2.96 nM; EC50 [11]: 5.86 nM; Inhibition [%] of BaF3/hEGFR proliferation in presence of 0.5 nM hEGF [12]: 28.5%; Inhibition [%] of BaF3/hEGFR proliferation in presence of 0.5 nM hTGFβ [12]: -7.3%; EC50 [13]: 1.29 nM; EC50 [14]: 1.48 nM
